Results: article PMC3644619 (Gene, 2008)

Assays:
[1] = molecular target: SF1 (steroidogenic factor 1) (UniProt Q04752 1-461); assay: two-hybrid
[2] = molecular target: T1, hormone-binding domain (HBD) of ERR1 (UniProt P11474 1-423); assay: two-hybrid
T1 sequence (looked up): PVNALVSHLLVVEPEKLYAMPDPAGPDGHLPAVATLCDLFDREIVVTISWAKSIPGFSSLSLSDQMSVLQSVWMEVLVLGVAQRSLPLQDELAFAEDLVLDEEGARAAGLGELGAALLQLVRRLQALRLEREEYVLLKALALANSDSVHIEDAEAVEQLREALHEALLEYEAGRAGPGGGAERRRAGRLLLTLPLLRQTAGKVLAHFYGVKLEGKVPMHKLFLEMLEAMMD

SF1 (steroidogenic factor 1), sequence (Q04752 whole entry, the tested form may be a part): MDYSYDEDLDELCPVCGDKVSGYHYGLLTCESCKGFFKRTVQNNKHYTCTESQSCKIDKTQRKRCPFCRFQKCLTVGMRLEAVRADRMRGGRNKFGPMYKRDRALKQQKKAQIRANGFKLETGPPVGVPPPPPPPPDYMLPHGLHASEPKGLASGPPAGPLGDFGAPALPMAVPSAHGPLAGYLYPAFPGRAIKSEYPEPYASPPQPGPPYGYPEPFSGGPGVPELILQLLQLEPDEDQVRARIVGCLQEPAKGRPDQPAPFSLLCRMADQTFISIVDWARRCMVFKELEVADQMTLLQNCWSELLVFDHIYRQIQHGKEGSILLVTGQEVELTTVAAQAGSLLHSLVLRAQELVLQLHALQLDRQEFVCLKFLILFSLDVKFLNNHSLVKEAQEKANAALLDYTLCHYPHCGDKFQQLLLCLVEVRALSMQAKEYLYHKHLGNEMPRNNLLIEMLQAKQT

fold increase of affinity compared to fl PNRC (two-hybrid β-galactosidase) [1]: > 10 fold | fold increase of affinity compared to fl PNRC (two-hybrid β-galactosidase) [2]: > 10 fold
B1: PNRC1d (natural protein)
chain: not shown
